{
  "source": "the DeepSol protein solubility set",
  "data": [
    {"assay": "soluble on expression in E. coli; label from the status in PepcDB or PDB records", "values": [
      {"sequence": "MSPFGKIAIVGSGLVGSSWATIFASSGYEVQMYDISEKQLQVALENVEKNLRKLDEHGLQRGNLSADEALLRVSTTTSLNEVMKNAIYMQESALEDLNFRIQFYKVIDEIADPTTILASSTSTIPASKFTDGLINKERCLIVHPVNPPLFLPLTELVPAPWTSQDTVDRAAEIMRSVKQEPVKLKKEVLGFVVNRLQFALLAETWRLVADGVIGVNDVDAVMSAGLGPRYAFNGTCETVHLNAFGVRDYFKRYAAGITAVLKDMGPIPDFTDEKVINKLEEELEPKMSTLNIRKHQAEREEKLVEIAKLKKDLNL", "soluble on expression in E. coli": "not soluble"},
      {"sequence": "MRKSVFVLVFLMASVLFSVELKICYLNEDLLPIVKVTEGRDNPVLEIFEALSSPPEGLKTFVPEGVLRAYFFVGDYLILDFYGEKLKGMNFDSERYFLHQVLYTTFLNVKGVNNVYIIIDGKKRDVLAKHVDIRFSFPREVWEKWPIRLEHHHHHH", "soluble on expression in E. coli": "not soluble"},
      {"sequence": "SNAMYKEGACLYRNPLRSKSDVKDWRMEGGGQISFDDHSLHLSHVQDEAHFVFWCPETFPDGIIVTWDFSPIEQPGLCMLFFAAAGIRGEDLFDPSLRKRTGTYPEYHSGDINALHLSYFRRKYAEERAFRTCNLRKSRGFHLAAMGADPLPSPDDADSPYRMKLIKDKGYVHFSINGLPILEWMDDGSTYGPVLTKGKIGFRQMAPMKAVYRDFAVHQAVRR", "soluble on expression in E. coli": "soluble"},
      {"sequence": "MALALTLREYEFSVLLLEARELPEKVDDPRPLALSYGSRLILQRLDIWKNLTQPAPITTIHISNRGHFGHAVLTPDDAGVPALGYVVNYHDLYHSMGRAIRGSNAVYQTNALVTAIRTDLSLAQVAYQQGSTTRQVRARLLVLADGGKLAEQIDGVRYHTYDYQQTAIVANVKVESPRPGTAFERFTLNGPLALLPSGEGYALVWTMPAAAAEKILKLDDRSFLLHLHEQFGDRMGEFTHVGPRSSFPLILKHASTITGHRAVLIGNAAQALHPVAGQGFNLGLRDAWELASEISRIPSGTPGEPGSTRMLAAYSRRRQSDKRISRLFTDSLVKLFTADLPLVQTCSGMGLAALDNLPPARRLIAHQMIFGTKGWFIGLEHHHHHH", "soluble on expression in E. coli": "soluble"},
      {"sequence": "SAKFVIAGRADCPYYAKTELVADYLQKNLPDFRIHKITQRPEVWEDWLKDVCEKNKWSHKNSPIIWRELLDRGGKGLLLGGYNEFLEHAQLYYDVTSSMTTELMMVIAQENLGAHIEKEQEEEALKTCINPLQVWITSEWVKREFVAILKNLTTTGRQFGGILAAHSIATTLKYWYHGSPPGEIVSLGILSEGQFGIPKGIVFSMPVKFENGTWVVLTDLKDVEISEQIMTRMTSDLIQEKLVALGDKIHFQPYQSDTPRTNTLHPSIQSSWHSVLTITIRKR", "soluble on expression in E. coli": "soluble"},
      {"sequence": "MVSKIRTFGWVQNPGKFENLKRVVQVFDRNSKVHNEVKNIKIPTLVKESKIQKELVAIMNQHDLIYTYKELVGTGTSIRSEAPCDAIIQATIADQGNKKGYIDNWSSDGFLRWAHALGFIEYINKSDSFVITDVGLAYSKSADGSAIEKEILIEAISSYPPAIRILTLLEDGQHLTKFDLGKNLGFSGESGFTSLPEGILLDTLANAMPKDKGEIRNNWEGSSDKYARMIGGWLDKLGLVKQGKKEFIIPTLGKPDNKEFISHAFKITGEGLKVLRRAKGSTKFTRVPKRVYWEMLATNLTDKEYVRTRRALILEILIKAGSLKIEQIQDNLKKLGFDEVIETIENDIKGLINTGIFIEIKGRFYQLKDHILQFVIPNRLGKPDLVKSELEEKKSELRHKLKYVPHEYIELIEIARNSTQDRILEMKVMEFFMKVYGYRGKHLGGSRKPDGAIYTVGSPIDYGVIVDTKAYSGGYNLPIGQADEMQRYVEENQTRNKHINPNEWWKVYPSSVTEFKFLFVSGHFKGNYKAQLTRLNHITNCNGAVLSVEELLIGGEMIKAGTLTLEEVRRKFNNGEINF", "soluble on expression in E. coli": "soluble"},
      {"sequence": "MALSDVKVRSAKPEAKAYKLTDGEGMVLLVHPNGSKYWRLRYRFGGKEKMLALGKYPEVSLADARARRDEARKLLANGVDPSENKKAVKVEQEQEAITFEVVARDWHASNQKWSASHSARVLKSLEDNLFTAIGKRNIAELKTRDLLVPIKAVESSGRLEVAARLQQRTTAIMRFAVQSGLIDYNPAQEIAGAVATAKRQHRAALELNRIPELLHRIDHYSGRPLTRLAVELTLLVFIRSSELRFARWSEIDFETAMWTIPGEREQLEGVKHSQRGSKMRTPHLVPLSRQALSILEKIKSMSGNRELIFVGDHDPRKPMSENTVNKALRVMGYDTKVEVCGHGFRTMACSSLIESGLWSRDAVERQMSHQERSSVRAAYIHKAEHLGERRLMFEVVNKNWPPS", "soluble on expression in E. coli": "not soluble"},
      {"sequence": "MSLGTPVTLRMDTTDADGRITLGDLFDGVSGPAANVVVAARMSATAVLEAGQVQMSARRAGYVWTNANGVRRIIVREGVDNGGVSSSAAPGAQLAGARLAGAPRANVEVLPYARSLSAGEIVQPQDLIWVKMAGAPADAPRDADAVIGLAAKRPLREGAPVGMKDVAAAQVIKSGDLITITYEDGGISLSLQGKAMAAAAAGDVFAVQNTLSKKIIQAVAVGPGAAAVGPQEGHHHHHH", "soluble on expression in E. coli": "not soluble"},
      {"sequence": "MGSDKIHHHHHHMKNVLILSSSPRRGGNSDTLCDEFMQGAIESGHRVEKVFLRDKTIHPCTGCGVCSQYKKPCPQKDDAAEIIGKMLAADVIVMATPVYFYAMSAQMKTLIDRCCGPYTEMKNKEFYFIATAAEEDNGIMDRIVANFMGFLDCLENPTVKGTLFCGGVWHVGEIEGNPTLRQAYEQGKRV", "soluble on expression in E. coli": "not soluble"},
      {"sequence": "MGSDKIHHHHHHVKKQVPDKTELGRTRVLVVGDVMLDRYWFGAVERISPEAPVPVVRVTREEERLGGAANVALNVKSLGARATLLTVVGDDEPAHTLKRLLERDGIDTLLGSDPQLYTIVKLRVIGRSQQLIRIDFENQPDHEVLAEMLQDYETTLAEQDAVLFSDYGKGGLEHIPRMIELARRSGKPVLVDPKGSDYRRYAGASVITPNRAELAQVVGAWSSEAQLRERAQALRVELGLEALLLTRSEEGMTLFDARGDTSVPAQAREVFDVTGAGDTVIATMAAMIACGLSPREAMPLANRAGSIVVGKFGTASVSYDELFE", "soluble on expression in E. coli": "not soluble"},
      {"sequence": "MGSDKIHHHHHHMSKLVTIYGGSGFVGRYIARRMAKEGWRVRVAVRRPNEAMHVKPYGAVGQVEPVLCNLRDDNSVAQTMRGADAVVNCVGVLNELGRNSFDAVQAEGAERIARIAAEQGVARMVHVSAIGADGDSDSAYSRSKALGEAGVLRHMPDAMILRPSVIFGTEDQFFNRFAGMTRFGPFLPVVGAETRFQPVYVDDVARAAVKGVLGQAPGGVYELGGPDVETFRALMQRMLGVIHRKRIIIALPFFAARIMAGMLDVAKFVSFQLFPNNILTRDQLKNLRRDNVVSEGAKGFADLGIAPEPMDTVLPAYLWKFRPNGQYDEIQASAKNLRA", "soluble on expression in E. coli": "not soluble"},
      {"sequence": "MKITAIHLYAIRLPLRNPFVISYGSYSDMPSIIVKMETDEGIIGYGEGVADDHVTGESWESTFHTLKHTLTPALIGQNPMNIEKIHDMMDNTIYGVPTAKAAIDIACFDIMGKKLNQPVYQLIGGRYHEEFPVTHVLSIADPENMAEEAASMIQKGYQSFKMKVGTNVKEDVKRIEAVRERVGNDIAIRVDVNQGWKNSANTLTALRSLGHLNIDWIEQPVIADDIDAMAHIRSKTDLPLMIDEGLKSSREMRQIIKLEAADKVNIKLMKCGGIYPAVKLAHQAEMAGIECQVGSMVESSVASSAGFHVAFSKKIITSVELTGPLKFTKDIGNLHYDVPFIRLNEKPGLGIEINEDTLQELTVFQDIVR", "soluble on expression in E. coli": "soluble"},
      {"sequence": "MAKSPVEVNLIPIEATPENFAEYGQVIEASRDGAGFGPHDAQLDLSRGTPRLYILRLKETPLGFFKITHHAKVTQCLGSIGGDVWYMGVAKPSLIEDDDDDGRSVDTVKSKSGHLYIPPEVEEIRVFRFSGPKFVKLHRGTWHAGPLFSGSSFMDFYNLELSNTNVSEEWF", "soluble on expression in E. coli": "soluble"},
      {"sequence": "MGSDKIHHHHHHMRSAAVDYAPSQAERRNFQRVRVKIYGRFMLEDRTEHPCQVVDMSPGNVAFRTDRIGMPGEKVIAYIDHIGRIEGVVTRTLQDGFAMTVIASDRKKDKLAAQLTWLANKHELDLPEDRRHERVAPRNPTSVLQLTDGRQYQCRIIDLSLSGAAIEIDVKPAIGVQVMLGTMRGQIVRHFEDGVAIEFAVIQRPETLDSEFNTPRA", "soluble on expression in E. coli": "not soluble"},
      {"sequence": "MGSDKIHHHHHHMTITESRNAAVAEIEEVIGDWAEALRRKDAARVLAHGTEDCLVFSLAPPLKASDADAGGLEQWFSTWKGPLGFTLEELDVSVSGDVAFATALTHLSGEKHDGQKAALWYRLTLGLTRTDRGWKIAHQHESVPFYMDGSFKAAIDLDPRSEVDWQAPSRPPMPGVIAYLNVEDADAAAAFYVRAFGAKEEDRKHAQDGKRLIHCHLTINGGALMLNDPFPEFGHPWKPPEGFVLHLVVDDADFWWNRAVEAGAEVTMPLEIAFWGDHYGQLRDPFGVTWGIVAPVKEGG", "soluble on expression in E. coli": "not soluble"},
      {"sequence": "MAHHHHHHMAVPHGMLISRNDITPDSLVDVPGDRKIVEQISNTMANSSLFKMEKEDHTLANLLRMKLHESPFVQIAGYRVPHPTKHNVELRVQTASNGTDAPVPAPKKALQDAVDGCLKDLEVFEEQLRREAQLKGLEASPS", "soluble on expression in E. coli": "not soluble"},
      {"sequence": "MTTSALPRQAFGEMADTVILLEKATTTPICEGMNRLLASFQALYLQYQKHHFVVEGAEFYPLHQFFQDCYEQVQDHVHALGERLNGLGGVPVAGFQQLAALCCFTPEPEGAFNCRQMLSNDLQAEQAIIGVLRQQATQAESLGDRATAYLYDQILLKTEERAYHIGHFLANDSLKVLKVKLADGREHHHHHH", "soluble on expression in E. coli": "soluble"},
      {"sequence": "MSLTDKPQAEVIAVYPNKVKICVDDLGSFTEGHPLLRVGSYLRVTDHEDCILIAIIESFLIEVDDRKNRRHVIEALPLGVIKDDKFIRGGDALTIPPTGVAPATIQDIKKIFEDSVPTNRKFEFSSLVTDPDIRVPVDGNRFFNKHIAVVGSTGAGKSNTVTRIIQTSTTKTPSGTQNNSHAIIFDIHSEYKAAFPHANHIDINSLNLPYWLLNSDELEEVLLDTGERDNYNQSSVFRYLVTENKKKHNEGHHHHHH", "soluble on expression in E. coli": "not soluble"},
      {"sequence": "MGSDKIHHHHHHMRHLKAFYVFHITAESSSYSQAAEKLHITHGAVSKQIKLLENHLSQILFYKQGRGMCLTQEGELLKRYTDIAFNTLDSGVKQLTRESHHYLEVSCEPTLTMRWLMPRLASFFQLTGIDVRLSTAGGPVKLAESGLSLAIRRDDFHIPPEYNKHNLVSEWAGPVFSPEYWCQIQQNWGDIVLLHSDSRPSAWSDWSQRSGHNFSTNKSKSFEHFYFCLQAAVDGLGGAIGSYPLIVDDLTSGRLVAPFGFIPSGHHYVLLSHTEKLVNNELSFFNWLEDTLSLCQPKTAKAAKPV", "soluble on expression in E. coli": "not soluble"},
      {"sequence": "MTKRHVSLPADAKDVRRAFVSGVDERLSAAETPDELATAVTGTLADLRGERDAYEAWRDGDDVRPAAAARLATLDPRNASLESEYYAEKDEAAFARSKPLQWLWRQFDTTPLADNVDVALPFRRMLAGHLFAGVGEDVRLFKGITMTYGHNIELGDNAVVHDGVHLDDRGELVVGARASVSNGAHLYTHDHDVVDQTDVTNYRTEIGADARVTQGALVRAGVRVGENALVGSRSVVQGDVPAHHIAVGSPAESVRVKPGWEAVAAPLDAGLEHHHHHH", "soluble on expression in E. coli": "soluble"}
    ]}
  ]
}
